In patent US6309839:

Tests used:
[1] = target: T1, gp41 helicase (bacteriophage T4?) (UniProt P04530); settings: biotin at position 60, streptavidin-bound; streptavidin displacement rate at 4 uM gp41; 5 mM ATP, 12.5 mM Mg(OAc)2, 150 mM KOAc, pH 7.5, 37 C; none without ATP
T1 sequence: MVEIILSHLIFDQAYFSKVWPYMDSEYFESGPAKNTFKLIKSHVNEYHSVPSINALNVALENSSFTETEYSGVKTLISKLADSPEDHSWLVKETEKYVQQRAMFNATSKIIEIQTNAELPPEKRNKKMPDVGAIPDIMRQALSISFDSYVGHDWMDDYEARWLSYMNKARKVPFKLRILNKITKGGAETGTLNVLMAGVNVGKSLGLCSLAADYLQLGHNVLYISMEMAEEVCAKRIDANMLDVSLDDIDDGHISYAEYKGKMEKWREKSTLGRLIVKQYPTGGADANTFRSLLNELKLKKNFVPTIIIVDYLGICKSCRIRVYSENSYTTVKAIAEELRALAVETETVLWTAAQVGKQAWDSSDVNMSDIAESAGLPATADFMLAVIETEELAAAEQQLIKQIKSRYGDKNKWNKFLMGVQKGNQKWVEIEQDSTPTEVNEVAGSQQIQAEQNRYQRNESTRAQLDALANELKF

[2] = target: T2, Dda helicase (bacteriophage T4?) (UniProt P32270); settings: biotin at position 60, streptavidin-bound; streptavidin displacement rate at 1 uM Dda, preincubated with DNA, 5 mM ATP, Mg2+
T2 sequence: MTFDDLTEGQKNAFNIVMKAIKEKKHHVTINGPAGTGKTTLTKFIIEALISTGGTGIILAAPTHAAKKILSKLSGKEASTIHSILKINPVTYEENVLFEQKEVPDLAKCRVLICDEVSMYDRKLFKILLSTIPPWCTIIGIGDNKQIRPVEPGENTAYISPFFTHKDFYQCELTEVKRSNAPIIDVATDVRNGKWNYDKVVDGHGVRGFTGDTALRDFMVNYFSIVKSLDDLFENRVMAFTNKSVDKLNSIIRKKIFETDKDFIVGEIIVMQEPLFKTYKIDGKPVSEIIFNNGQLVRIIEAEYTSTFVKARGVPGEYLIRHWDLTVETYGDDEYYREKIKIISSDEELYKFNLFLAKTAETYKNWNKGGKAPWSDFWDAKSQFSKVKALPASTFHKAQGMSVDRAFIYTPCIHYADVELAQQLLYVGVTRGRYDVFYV

[3] = target: NS3 helicase (full length) (Hepatitis C virus) (UniProt P26663); settings: biotin at position 2, streptavidin-bound; streptavidin displaced from 5' end; 10 nM NS3, 100 nM oligonucleotide
Chain of NS3 helicase (full length) (Hepatitis C virus) (P26663 1027-1657): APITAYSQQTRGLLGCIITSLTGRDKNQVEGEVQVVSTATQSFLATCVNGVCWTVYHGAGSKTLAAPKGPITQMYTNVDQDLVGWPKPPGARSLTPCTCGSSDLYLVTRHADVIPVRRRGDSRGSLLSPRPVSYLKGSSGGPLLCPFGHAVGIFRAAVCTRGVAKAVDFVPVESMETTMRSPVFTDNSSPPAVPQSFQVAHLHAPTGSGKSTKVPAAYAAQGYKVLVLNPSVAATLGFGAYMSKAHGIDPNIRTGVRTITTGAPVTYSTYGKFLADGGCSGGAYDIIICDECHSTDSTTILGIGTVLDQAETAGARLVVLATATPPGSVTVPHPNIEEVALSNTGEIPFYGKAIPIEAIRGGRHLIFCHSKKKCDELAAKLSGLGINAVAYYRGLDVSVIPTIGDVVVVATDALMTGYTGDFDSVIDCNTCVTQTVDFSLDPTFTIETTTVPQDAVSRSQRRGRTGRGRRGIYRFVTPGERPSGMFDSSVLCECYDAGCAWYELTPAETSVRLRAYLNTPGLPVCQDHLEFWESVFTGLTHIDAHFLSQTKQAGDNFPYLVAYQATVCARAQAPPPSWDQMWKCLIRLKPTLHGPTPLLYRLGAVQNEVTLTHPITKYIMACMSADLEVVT

Row | Substance | activity [1] [min⁻¹] | activity [2] [s⁻¹] | activity (fold over spontaneous dissociation) [3]
1 | 3'-bio-61-mer (called 62-mer in text) | 0.17 | 7.9 | 
2 | 5'-bio-60-mer |  |  | > 100
